Measurements as given in article PMC11574364.

T1: QKI (recombinant His-QKI) (UniProt Q96PU8)
T1 sequence: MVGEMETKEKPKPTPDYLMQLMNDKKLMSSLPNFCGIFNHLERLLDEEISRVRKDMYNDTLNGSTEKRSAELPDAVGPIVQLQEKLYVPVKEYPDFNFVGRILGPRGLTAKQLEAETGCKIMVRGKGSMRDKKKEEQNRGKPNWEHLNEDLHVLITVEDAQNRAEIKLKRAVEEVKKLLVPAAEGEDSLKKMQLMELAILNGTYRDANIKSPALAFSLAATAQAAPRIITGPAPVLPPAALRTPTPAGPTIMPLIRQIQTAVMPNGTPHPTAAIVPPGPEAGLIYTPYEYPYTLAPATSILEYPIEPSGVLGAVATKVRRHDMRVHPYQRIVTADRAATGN

T2: HIS-QKI (RNA-binding domain array) (human, UniProt Q96PU8 1-341)
T2 sequence: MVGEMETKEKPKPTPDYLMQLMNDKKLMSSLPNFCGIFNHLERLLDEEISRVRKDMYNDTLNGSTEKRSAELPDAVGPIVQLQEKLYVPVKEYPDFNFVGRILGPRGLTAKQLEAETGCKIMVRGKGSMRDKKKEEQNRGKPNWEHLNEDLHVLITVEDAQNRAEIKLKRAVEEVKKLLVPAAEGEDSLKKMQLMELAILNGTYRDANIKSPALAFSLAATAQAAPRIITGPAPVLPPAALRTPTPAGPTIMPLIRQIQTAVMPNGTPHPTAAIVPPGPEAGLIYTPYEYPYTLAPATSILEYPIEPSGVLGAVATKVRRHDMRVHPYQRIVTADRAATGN

T3: ZNF597 (human, UniProt Q96LX8 1-424)
T3 sequence: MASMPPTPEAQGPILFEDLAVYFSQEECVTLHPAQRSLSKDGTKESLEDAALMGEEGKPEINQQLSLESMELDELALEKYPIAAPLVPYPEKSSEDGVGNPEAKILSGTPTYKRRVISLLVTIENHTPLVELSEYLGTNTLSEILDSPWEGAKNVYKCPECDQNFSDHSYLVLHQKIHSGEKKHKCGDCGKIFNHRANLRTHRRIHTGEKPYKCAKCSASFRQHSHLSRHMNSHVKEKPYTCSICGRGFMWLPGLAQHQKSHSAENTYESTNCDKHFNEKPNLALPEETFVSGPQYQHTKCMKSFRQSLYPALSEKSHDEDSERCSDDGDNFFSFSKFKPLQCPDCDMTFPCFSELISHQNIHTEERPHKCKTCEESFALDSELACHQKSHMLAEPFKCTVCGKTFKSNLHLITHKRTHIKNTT

T4: ARL10 (human, UniProt Q8N8L6 1-244)
T4 sequence: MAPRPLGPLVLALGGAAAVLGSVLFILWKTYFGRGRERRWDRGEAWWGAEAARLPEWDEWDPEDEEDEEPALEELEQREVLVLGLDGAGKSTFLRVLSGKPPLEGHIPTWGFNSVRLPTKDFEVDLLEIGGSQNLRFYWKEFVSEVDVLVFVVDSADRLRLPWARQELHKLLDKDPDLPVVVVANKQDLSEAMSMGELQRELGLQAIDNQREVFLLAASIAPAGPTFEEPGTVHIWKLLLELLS

T5: QKI (human ORF array) (human, UniProt Q96PU8 1-341)
T5 sequence: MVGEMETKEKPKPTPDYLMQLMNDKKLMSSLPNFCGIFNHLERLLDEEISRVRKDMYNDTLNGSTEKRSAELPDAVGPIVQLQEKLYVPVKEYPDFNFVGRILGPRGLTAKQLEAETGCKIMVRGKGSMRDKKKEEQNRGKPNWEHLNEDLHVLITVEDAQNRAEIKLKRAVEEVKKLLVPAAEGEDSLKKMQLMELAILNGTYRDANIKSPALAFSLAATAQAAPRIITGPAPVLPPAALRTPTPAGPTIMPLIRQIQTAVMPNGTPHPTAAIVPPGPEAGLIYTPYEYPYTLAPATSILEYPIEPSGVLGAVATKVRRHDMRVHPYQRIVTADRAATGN

T6: ISY1 (human, UniProt Q9ULR0 1-285)
T6 sequence: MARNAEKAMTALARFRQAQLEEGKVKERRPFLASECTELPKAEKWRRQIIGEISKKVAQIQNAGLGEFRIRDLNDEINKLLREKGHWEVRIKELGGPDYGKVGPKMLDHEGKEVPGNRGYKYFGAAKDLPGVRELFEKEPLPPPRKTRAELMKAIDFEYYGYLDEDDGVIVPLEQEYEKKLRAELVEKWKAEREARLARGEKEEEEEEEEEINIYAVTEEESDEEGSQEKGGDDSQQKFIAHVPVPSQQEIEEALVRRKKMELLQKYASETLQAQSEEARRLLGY

B1: miR-130b biotin/Cy3 (ssRNA)
RNA: CAGUGCAAUGAUGAAAGGGCAU
B2: let-7c biotin/Cy3 (ssRNA)
RNA: UGAGGUAGUAGGUUGUAUGGUU
B3: let-7a biotin/Cy3 (ssRNA)
RNA: UGAGGUAGUAGGUUGUAUAGUU
B4: miR-21 biotin/Cy3 (ssRNA)
RNA: UAGCUUAUCAGACUGAUGUUGA
B5: let-7d biotin/Cy3 (ssRNA)
RNA: AGAGGUAGUAGGUUGCAUAGUU
B6: let-7b biotin/Cy3 (ssRNA)
RNA: UGAGGUAGUAGGUUGUGUGGUU
B7: miR-21 (internal labeling) (ssRNA)
RNA: UAGCUUAUCAGACUGAUGUUGA
B8: let-7b (internal labeling) (ssRNA)
RNA: UGAGGUAGUAGGUUGUGUGGUU
modifications: 5' phosphate; amino-C6 U at position 18
B9: miR-130b (internal labeling) (ssRNA)
RNA: CAGUGCAAUGAUGAAAGGGCAU

These molecules were tested against T1, QKI (recombinant His-QKI) (assay: fluorescence polarization). Conditions: 2 mM Mg2+; FP: 20 mM HEPES pH 7.4, 150 mM NaCl, 2 mM MgCl2, 1 U/ul RiboLock, 10 mM DTT, 3 nM Cy3-RNA, 5 min, room temperature; domain array: 20 mM Tris-HCl pH 7.4, 200 mM ….

Molecule	Kd [nM]
UGAGGUAGUAGGUUGUGUGGUU [let-7b-Cy3]	8.07
UAGCUUAUCAGACUGAUGUUGA [miR-21-Cy3]	48.5
CAGUGCAAUGAUGAAAGGGCAU [miR-130b-Cy3]	7.03

Each molecule was assayed against T2, HIS-QKI (RNA-binding domain array) (assay: protein microarray probed with biotinylated miRNA; Domain array: 20 mM Tris-HCl pH 7.4, 200 mM KCl, 0.2 mM EDTA, 0.05% NP40, 2 ug/ul heparin, overnight 4 C. ORF array: PBS pH 7.0 with RNase inhibitor, 100 ng RNA; high values mean tight binding). Conditions: not given.

Molecule	binding signal [fluorescence intensity]
B1	428 ± 18.2
B2	1280 ± 235
B3	336 ± 27.5
B4	26.4 ± 0.354
B5	1210 ± 167
B6	1340 ± 56.7

These molecules were tested against ZNF490 (human, UniProt Q9ULM2 1-529) (assay: protein microarray; FP: 20 mM HEPES pH 7.4, 150 mM NaCl, 2 mM MgCl2, 1 U/ul RiboLock, 10 mM DTT, 3 nM Cy3-RNA, 5 min, room temperature; domain array: 20 mM Tris-HCl pH 7.4, 200 mM). Conditions: not given.
Chain of ZNF490 (Q9ULM2 whole entry): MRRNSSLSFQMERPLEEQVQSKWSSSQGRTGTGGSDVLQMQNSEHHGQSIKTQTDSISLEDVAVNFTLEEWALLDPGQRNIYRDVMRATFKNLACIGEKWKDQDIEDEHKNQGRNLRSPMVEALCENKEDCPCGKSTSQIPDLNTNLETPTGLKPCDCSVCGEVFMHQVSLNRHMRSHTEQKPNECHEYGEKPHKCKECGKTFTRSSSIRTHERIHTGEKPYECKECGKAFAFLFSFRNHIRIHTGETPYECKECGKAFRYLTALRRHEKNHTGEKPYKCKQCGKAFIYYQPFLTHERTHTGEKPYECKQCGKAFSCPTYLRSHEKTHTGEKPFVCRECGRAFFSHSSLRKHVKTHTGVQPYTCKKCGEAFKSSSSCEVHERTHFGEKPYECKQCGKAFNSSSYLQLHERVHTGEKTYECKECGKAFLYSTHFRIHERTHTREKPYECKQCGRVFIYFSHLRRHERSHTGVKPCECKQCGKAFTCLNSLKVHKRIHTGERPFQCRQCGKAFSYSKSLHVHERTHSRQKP

Molecule	binding result
B7	binds
B8	binds
B9	binds

What follows are molecules tested against T3, ZNF597 in the same assay as above. Conditions: not given.

Molecule	binding result
B7	binds
B8	binds
B9	binds

Each molecule was assayed against T4, ARL10 in the same assay as above. Conditions: not given.

Molecule	binding result
B7	binds
B8	binds
B9	binds

What follows are molecules tested against ZIC3 (human, UniProt O60481 1-467) in the same assay as above. Conditions: not given.
Chain of ZIC3 (O60481 whole entry): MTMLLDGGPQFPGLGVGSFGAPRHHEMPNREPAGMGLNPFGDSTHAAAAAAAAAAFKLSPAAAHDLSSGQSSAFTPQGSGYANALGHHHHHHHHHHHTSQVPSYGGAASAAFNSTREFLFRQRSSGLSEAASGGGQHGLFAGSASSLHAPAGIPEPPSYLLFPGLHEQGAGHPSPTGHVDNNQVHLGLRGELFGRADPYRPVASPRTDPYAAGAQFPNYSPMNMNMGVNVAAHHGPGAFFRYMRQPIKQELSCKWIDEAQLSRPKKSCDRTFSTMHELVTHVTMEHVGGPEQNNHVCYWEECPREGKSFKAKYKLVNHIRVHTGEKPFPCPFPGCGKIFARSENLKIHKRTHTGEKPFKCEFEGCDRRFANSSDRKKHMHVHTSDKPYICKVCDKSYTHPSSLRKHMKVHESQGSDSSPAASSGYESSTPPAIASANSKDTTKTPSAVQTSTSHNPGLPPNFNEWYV

Molecule	binding result
B7	binds
B8	binds
B9	binds

These molecules were tested against T5, QKI (human ORF array) in the same assay as above. Conditions: not given.

Molecule	binding result
B8	binds

These molecules were tested against T6, ISY1 in the same assay as above. Conditions: not given.

Molecule	binding result
B7	binds
B8	binds
B9	binds
